Data taken from patent publication US20260234270A1, “METHODS FOR TREATING CONDITIONS USING ANTI-NMDA RECEPTOR ANTIBODIES” (Lankenau Institute for Medical Research, priority 2022, published 2026).
Entries after “also recorded” stand apart in the source; their conditions may differ.

Columns and labels:
tinnitus = details: intratympanic injection; cited from earlier work
retinal cells = details: glaucoma, elevated homocysteine; cited from earlier work
[1] = system: monkey model of experimental glaucoma; details: cited from earlier work
[2] = system: streptozotocin-induced diabetic mouse model; details: cited from earlier work
[3] = system: amino terminal domain of GluN1; assay: Competitive binding assay, Whole Cell ELISA with HEK293T-ATD cells; details: for Binding of one biotinylated mAb in the presence of increasing concentrations of the other mAb (2G6 versus 5F5): HEK293T-ATD cells, competitor 50 to 0.2 μg/mL, biotinylated mAb 5 μg/mL; for Competition of 1D1 with mixed 2G6 and 5F5 mAbs for binding to NMDAR ATD: experiments similar to Example 2
Source text: We assessed the binding epitopes of the 2G6 and 5F5 mAbs. We tested whether they bind overlapping epitopes on GluN1, using a competitive binding assay with HEK293T-ATD cells, which express the amino terminal domain of GluN1. Sharma, R., Al-Saleem, F. H., Panzer, J., Lee, J., Puligedda, R. D., Felicori, L. F., Kattala, C. D., Rattelle, A. J., Ippolito, G., Cox, R. H., Lynch, D. R. and Dessain, S. K. (2018), Monoclonal antibodies from a patient with anti-NMDA receptor encephalitis. Ann Clin Transl Neurol, 5:935-951, which is incorporated herein by reference.
HEK293T-ATD cells (10^5 cells/well) were tested in a Whole Cell ELISA with luminescent detection method. We biotinylated the 5F5 and 2G6 or 5F5 using the EZ-Link™ Hydrazide-Biotin kit (Thermo Fisher), then generated dilution series of 2G6 or 5F5 (50 μg/mL to 0.2 μg/mL) and added to them the plate for 1 h at 37° C., followed by three washes with PBST. We then added the biotinylated 5F5 or 2G6 mAbs at 5 μg/mL, or PBS, and incubated for 1 h at 37° C. followed by three washes with PBST. The Pierce Streptavidin Poly-HRP substrate (Thermo Fisher) was added at 1:2000 dilution and incubated for 1 h at 37° C. This was followed by SuperSignal ELISA Femto Substrate, (1:1 ratio) (Thermo Fisher) and relative luminescence values were measured using the Synergy II plate reader. Duplicate binding curves were plotted and the linear portions were used for analysis using Excel.
We measured binding of one mAb, biotinylated, in the presence of increasing concentrations of the other.
Experiments similar to those done in Example 2 were used to test whether the 1D1 binds a site on the NMDAR ATD that overlaps 2G6 and 5F5. In these experiments, 1D1 binding was tested in competition with mixed 2G6 and 5F5 mAbs.

NMDAR GluN1 antigen = NMDAR GluN1 antigen (Mus musculus, UniProt P35438); assay: Immunofluorescence staining of mouse retinas (normoxic; oxygen induced retinopathy model); format: binding; details: chimeric antibodies
NMDAR GluN1 epitopes = biological target: T1, NMDAR GluN1 epitopes (Mus musculus, UniProt P35438); assay: Antibody binding in mouse retina, model of retinitis pigmentosa
T1 construct: from tissue; host or cells: mouse retina, model of retinitis pigmentosa
Source text: Left panels show DAPI staining, middle panels show antibody staining, right antibodies show merged imaging.

[4] = system: oxygen induced retinopathy (OIR) in mice; assay: Mouse oxygen induced retinopathy (OIR) model, hyperoxia induced hemorrhage; format: in vivo; details: hyperoxia P7 to P12; eye injected at P12; other eye PBS
Method: Neonatal mice were exposed to hyperoxia (75% oxygen) from postnatal day 7 (P7) to P12, and then returned to room air. Upon return to room temperature, at P12, the eye on the right was injected with 5F5 antibody against NMDAR, while the left eye in the figure was injected with PBS.
We next examined the potential effects of the NMDAR antibodies on pathological retinal neovascularization. We used the well characterized model of oxygen induced retinopathy (OIR) in mice. In this model, neonatal mice are exposed to hyperoxia (75% oxygen) from postnatal day 7 (P7) to P12, and then returned to room air. This approach, induces pathological neovascularization in the retina. In FIGS. 3A and 3B, a comparison is shown between two eyes of a mouse exposed to hyperoxia. Upon return to room temperature, at P12, the eye in FIG. 3B was injected with 5F5 antibody against NMDAR, while the eye in FIG. 3A was injected with PBS. […] This is a wholly unexpected finding.

[5] = hyperoxic conditions (75% oxygen P7 to P12, oxygen induced retinopathy model)

Row | Molecule | Binding of one biotinylated mAb in the presence of increasing concentrations of the other mAb (2G6 versus 5F5) [3] | Competition of 1D1 with mixed 2G6 and 5F5 mAbs for binding to NMDAR ATD [3] | Antibody binding in mouse retina (NMDAR GluN1 antigen; [5]) | Antibody binding in mouse retina (NMDAR GluN1 antigen; normoxic conditions) | Antibody binding in mouse retina (epitope expression) (NMDAR GluN1 epitopes) | also measured
1 | CN[C@]1(c2ccccc2Cl)CCCCC1=O [Esketamine] | – | – | – | – | – | Activity in treatment of tinnitus (tinnitus): has shown activity in treatment of tinnitus
2 | C[C@]12N[C@H](Cc3ccccc31)c1ccccc12 [MK-801] | – | – | – | – | – | Homocysteine toxicity to retinal cells via NMDAR (retinal cells): inhibited
3 | CC12CC3CC(C)(C1)CC(N)(C3)C2 [Memantine] | – | – | – | – | – | Retinal damage [1]: reduced retinal damage; Retinal toxicity [2]: reduce retinal toxicity
4 | 5F5: monoclonal human anti-NMDAR (GluN1) antibody; variable heavy chain SEQ ID NO: 1, light chain SEQ ID NO: 3; chimeric form in Examples 5-8 (antibody, listed as Mus musculus, listed as Homo sapiens, V domains shown) VH: QVQLVESGGGVVRPGGSLRLSCAASGFTFSTYSLHWVRQAPGKGLEWVGVILYDGSKKYYADSVRGRFTISRDNSKSTLNLDMSSLRPDDTAVYYCARDPIAVAPRPSGMVPQGFDYWGQGTLVTVSS VL: QSVVTQPPSASGTPGQRVTISCSGSSSNIGRNFVFWYRQLPGTAPKVLIYKNIQRPSGVPDRISGSRSGSSASLAISGLRSEDEADYYCASWDDSLSGVVFGGGTKLTVL | Bind Different Sites on the NMDAR | not inhibited by 1D1 | shows staining; also recorded: show binding in outer segments of mouse retina | None of the anti-NMDAR antibodies or the control antibody bound to mouse retina | expressed in the mouse retina | Antibody binding in mouse retina (NMDAR GluN1 antigen; hyperoxic conditions (75% oxygen P7 to P12, oxygen induced retinopathy model), listed as 5G5): immunoreactive with the outer segment of the photoreceptors as well as the choriocapillaris layers of the mouse retina; Retinal bleeding / pathological neovascularization of the treated eye [4]: Prevents Hyperoxia Induced Hemorrhage; also recorded: the treated eye shows no bleeding
5 | 2G6: monoclonal human anti-NMDAR (GluN1) antibody; variable heavy chain SEQ ID NO: 9, light chain SEQ ID NO: 11 (antibody, listed as Mus musculus, listed as Homo sapiens, V domains shown) VH: QVQLQESGGGVVQPGRSLRLSCAASGFSFNAFAMHWVRQAPGKGLEWVARISHYGSDDYYADSVKGRFTISRDNSQNTLFLQMNSLKAEDTGVYYCWRGFTLVRGVISRNPINRFSGMDVWGQGTTVTVS VL: SYELMQPPSVSVSPGQTARITCSGDALPKKYAYWYQQKSGQAPILVIYEDNKRPSGIPERFSGSSSGTMATLTISGAQVEDEADYFCYSTDSSGNHGVFGGGTKLTVL | Bind Different Sites on the NMDAR | not inhibited by 1D1 | expressed in the mouse retina; also recorded: immunoreactive with the outer segment of the photoreceptors as well as the choriocapillaris layers of the mouse retina; also recorded: show binding in outer segments of mouse retina | None of the anti-NMDAR antibodies or the control antibody bound to mouse retina | expressed in the mouse retina | –
6 | 1D1: monoclonal human anti-NMDAR (GluN1) antibody; variable heavy chain SEQ ID NO: 5, light chain SEQ ID NO: 7 (antibody, listed as Mus musculus, listed as Homo sapiens, V domains shown) VH: LVQLVESGGGVVQSGRSLRLSCAASGFAFHTFTIHWVRQAPGKGLDWVTAIYFDGTKKYYADSVKGRFTVSRDNSKNTVYLQMNGLRGEDTAVYYCARARYSYGLSFDYWGQGTPVTVSS VL: QSVVTQPPSVSAAPGQKVTISCSASSSYLGSNYVSWYQQLPGTAPKLLIYDNNKRSSGISDRFSGSKSGTSATLDITGLQTGDEADYYCGAWDSSLSVVVFGGGTKLTVL | – | not inhibited by 2G6 and 5F5 binding | expressed in the mouse retina; also recorded: immunoreactive with the outer segment of the photoreceptors as well as the choriocapillaris layers of the mouse retina; also recorded: show binding in outer segments of mouse retina | None of the anti-NMDAR antibodies or the control antibody bound to mouse retina | – | –
